Test results: patent US20190343801A1, “COMPOSITIONS AND METHODS FOR CONTROLLING NATURAL KILLER CELL ACTIVATION AND FUNCTION” (BAR ILAN UNIVERSITY, priority 2017, published 2019)
Where no end group is shown, it is not given here.

Assays:
CFP-actin [1] = target: CFP-actin (UniProt P60709); assay: FRET between YFP-SHP-1 and CFP-actin in YTS cells at the activating NKIS (221-Cw7 target cells)
CFP-actin [2] = target: CFP-actin (UniProt P60709); assay: FRET between YFP-SHP-1 and CFP-actin in YTS cells at the inhibitory NKIS (221-Cw4 target cells)
SHP-1 [3] = target: T1, SHP-1 (Homo sapiens, UniProt P29350); assay: MST analysis for the binding of YFP-SHP-1 and actin-derived peptides; conditions: for binding to SHP-1: lysates of HEK 293T cells expressing YFP-SHP-1, peptides 400 μM-48 nM
T1 construct: expressed in transfected cells; host or cells: HEK 293T cells, unpurified lysate
T1 sequence (P29350 whole entry): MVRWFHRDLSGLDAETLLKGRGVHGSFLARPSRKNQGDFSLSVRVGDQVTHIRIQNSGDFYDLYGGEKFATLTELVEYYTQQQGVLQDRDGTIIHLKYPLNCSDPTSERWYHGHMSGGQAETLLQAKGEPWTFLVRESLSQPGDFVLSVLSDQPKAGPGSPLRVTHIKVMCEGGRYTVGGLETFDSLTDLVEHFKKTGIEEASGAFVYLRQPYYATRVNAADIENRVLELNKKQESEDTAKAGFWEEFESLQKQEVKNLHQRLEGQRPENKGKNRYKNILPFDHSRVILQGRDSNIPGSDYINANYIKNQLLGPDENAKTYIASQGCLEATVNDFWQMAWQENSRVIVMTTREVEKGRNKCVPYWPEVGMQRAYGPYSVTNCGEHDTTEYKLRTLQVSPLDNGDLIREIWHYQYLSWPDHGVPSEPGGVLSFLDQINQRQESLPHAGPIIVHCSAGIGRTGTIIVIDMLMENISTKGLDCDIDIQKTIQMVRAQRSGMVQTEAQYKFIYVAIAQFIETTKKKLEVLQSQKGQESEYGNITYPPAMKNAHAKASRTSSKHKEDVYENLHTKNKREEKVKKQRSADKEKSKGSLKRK
Text: Binding curves were generated by the NanoTemper analysis software (MO.Affinity Analysis v2.1.3). The graph summarizes the changes of the fluorescent thermophoresis signals as a function of peptide concentration from at least three independent experiments. Data are means±SD.
YFP-tagged SHP-1 was obtained from cell lysates of Human Embryonic Kidney (HEK) 293T cells, transiently transfected with YFP-SHP-1 by DNA-calcium phosphate co-precipitation, as previously described (Reicher B, et al (2012) Molecular and cellular biology 15: 3153-3163). MST measurements were performed using the protein purification-free method described by Khavrutskii et al. (Khavrutskii L, et al (2013) Journal of visualized experiments: JoVE). Briefly, each peptide (Synpeptide) was initially dissolved in Dimethylformamide (DMF), diluted in DDW (supplemented with 1 mM DTT) to reach stock concentration of 80004, and serially diluted (range from 400 μM to 48.8 nM) in HEPES buffer (50 mM, supplemented with 0.05% Tween-20 and 1 mM DTT) in 200 μL PCR-tubes. Then, YFP-SHP-1-containing cell lysate was added to the serially diluted tubes at a 1:1 ratio and the samples were gently mixed. The samples were allowed to incubate at room temperature for 30 min before being loaded into standard-treated Monolith™ capillaries (NanoTemper). After loading into the instrument (Monolith NT.115, NanoTemper), microthermophoresis was carried out using 40% LED power and 40% MST power. The changes of the fluorescent thermophoresis signals were plotted against the concentration of the serially diluted peptides. KD values were determined using the NanoTemper analysis software (MO.Affinity Analysis v2.1.3).
The SHP-1-β-actin complex formation was also examined using microscale thermophoresis (MST) technology. […] Lysates of HEK 293T cells transiently expressing YFP-SHP-1 were incubated with decreasing concentrations of the different peptides followed by MST analysis.

smooth muscle = conditions: cited from earlier work
[4] = test system: myosin superfamily members from classes I, V, and X; conditions: cited from earlier work
SHP-1: β-actin complex = assay: SHP-1 immunoprecipitation and anti-β-actin immunoblotting in YTS-2DL1 cells incubated with target cells; type: cell-based; conditions: inhibitory 221-Cw4 cells; 0.5 μM CytD
Experimental: YTS-2DL1 cells were incubated at 37° C. with 221-Cw4 or Cw7 cells for 5 min, 1 μM of JAS was added, and cells were incubated for 5 min. Cell lysates were subjected to IP of SHP-1 and IB with anti-β-actin or anti-SHP-1 antibodies. Shown data represent at least three independent experiments.
In FIG. 8D, YTS-2DL1 cells were incubated at 37° C. with 221-Cw4 or Cw7 cells for 5 min, 0.5 μM of CytD was added, and the cells were incubated for an additional 5 min. The cells were lysed, and IPs of SHP-1 were subjected to IB using anti-β-actin or anti-SHP-1. Results shown are representative of three independent experiments.
NK cells (primary or YTS) and ‘221’ target cells (either expressing HLA-Cw4, Cw7 or no HLA) were first incubated separately on ice for 10 min, at a ratio of 1:1. The cells were then mixed, centrifuged and kept on ice for 15 min. The cell mixture was then transferred to 37° C., for the indicated period of time, and subsequently lysed with ice-cold lysis buffer.
For analysis of whole cell lysates, 1-10×10^5 cells were used, and for IP experiments, 10-15×10^6 cells were used. Protein A/G plus-Agarose beads (Santa Cruz Biotechnology) were used for IP. […] Immunoreactive proteins were detected with either anti-mouse or anti-rabbit horseradish peroxidase-coupled secondary antibody followed by detection by enhanced chemiluminescence (PerkinElmer).

[5] = test system: F-actin retrograde flow in YTS and pNK F-tractin GFP cells; assay: Live cell imaging and kymograph analysis of F-actin retrograde flow (ARF) in F-tractin GFP NK cells; type: cell-based; conditions: 0.5 μM CytD, anti-CD28 or anti-KIR2DL1
Text: FIGS. […] In FIG. 5A, YTS F-tractin GFP cells were dropped over coverslips coated with anti-CD28 or anti-KIR1 antibodies, and imaged at 1 frame/sec through a single focal plane. […] Representative images are shown. Kymographs of F-actin dynamics were compiled along the contact site radius. […]
The y axis represents F-actin velocity (μm/sec), and the x axis—time from initial spreading (sec).
FIGS. 5E-5H. show analyses of NKIS area and ARF in the activating vs. inhibitory NKIS in the presence of Y-27632 (Y-27) inhibitor of myosin light chain (MLC) phosphorylation and/or JAS. […] NKIS area was determined using ImageJ. […]
Analyses of actin and SHP-1 dynamics were performed by preparing kymographs from live cell videos and tracing the movement of the fluorescently tagged proteins. […] Velocity over distance from the center was determined by calculating the velocity of the tracked protein based on the distance traversed to time between each two points on the trace, and noting the relative location from the center of the measured area. […] For each bin, average velocity and standard error were calculated. Average distance traversed over time was calculated by measuring the location of the trace, relative to its point of origin at each time point after the beginning of the trace. For each relative time point from the beginning of a trace, an average distance and standard error were calculated. […]

SHP-1 [6] = assay: PTP assay: SHP-1 catalytic activity (pNPP hydrolysis) after treatment of NK-target cell conjugates; type: cell-based; conditions: YTS-2DL1 + 221-Cw4, untreated 100%; 0.5 μM CytD
Experimental: YTS-2DL1 cells were pretreated with 25 μM Y-27 or left untreated. Cells were incubated at 37° C. with target cells for 5 min, 1 μM of JAS was added, and samples were incubated for 5 minutes before lysis. IP of SHP-1 was performed, and precipitates were incubated with pNpp. SHP-1 activity was determined by measuring absorbance at 405 nm. The graph represents rates of SHP-1 catalytic activity from three independent experiments.
In FIG. 8E, YTS-2DL1 cells were incubated at 37° C. with 221-Cw4 or Cw7 cells for 5 min, treated with 0.5 μM of CytD or left untreated, and SHP-1 activity was determined as detailed in the Materials and Methods. Graph summarizing percent of relative SHP-1 catalytic activity obtained by four independent experiments. Data are means±SEM.
SHP-1 catalytic activity was determined by measuring the hydrolysis of the exogenous substrate p-Nitrophenyl Phosphate (pNPP) by SHP-1, as previously described. NK cells (2-5×10^6) were incubated with target cells at ratio of 1:1, activated as described above, and lysed with passive ice-cold lysis buffer (1% Brij, 1% n-Octyl-b-D-glucoside, 50 mM Tris-HCl, pH 7.4, 150 mM NaCl, 5 mM ethylenediaminetetraacetic acid, and complete protease inhibitor tablets). Cell lysates were subjected to IP with anti-SHP-1 antibody. […] Reactions were terminated by adding 800 μl 1M NaOH, and SHP-1 activity was determined by measuring absorbance at 405 nm.

[7] = target: YFP-SHP-1 (human SHP-1 wt tagged with YFP) (human) (UniProt P29350); assay: MST, peptide titrated into lysate of HEK 293T cells expressing YFP-SHP-1
[8] = target: YFP-SHP-1 (human SHP-1 wt tagged with YFP) (human) (UniProt P29350); assay: MST, lysate of 293T cells expressing YFP-SHP-1 with serially diluted peptide

Molecule “YFP-SHP-1 (human SHP-1 wt tagged with YFP) (from UniProt P29350 1-595) (enzyme)” has an FRET efficiency (CFP-actin [1]) of 8.5% and an FRET efficiency (CFP-actin [2]) of 18.9%.

In the case of “KEKLCFVALDF (mutant actin peptide) [Y-F mutant, single aa mutant form of the β-actin peptide, tyrosine to phenylalanine substitution]”, the “binding to SHP-1” value (SHP-1 [3]) is reported as “no binding was detected”.

For `Cc1ccc2c(c1)C(=O)C1(O)CCN(c3ccccc3)C1=N2` (stereo not drawn) [Blebbistatin], the IC50 (smooth muscle) is given as 80 µM and the inhibition [4] is given as “does not inhibit”.

“KEKLCYVALDF [WT actin peptide, KEKLCYVALDF]” gave a Kd (SHP-1 [3]) of 39.5 ± 6.2 µM.

With `C=C1[C@@H](C)[C@H]2C(Cc3ccccc3)NC(=O)[C@]23[C@H](OC(C)=O)/C=C/[C@@](C)(O)C(=O)[C@@H](C)C/C=C/[C@H]3[C@@H]1O` (stereo partly drawn) [CytD, Cytochalasin D] the “SHP-1 binding to β-actin” value (SHP-1: β-actin complex) was “increased binding of SHP-1 to β-actin”, the “ARF velocity at the LP” value [5] was “significant reduction in ARF velocity” and the “relative SHP-1 catalytic activity” value (SHP-1 [6]) was 55.4±8.4%.

For EYQKASGVSG (irrelevant control peptide), the “binding to SHP-1” value (SHP-1 [3]) was “no binding was detected”.

For KEKLCYVALDF [WT β-actin derived peptide containing an ITIM motif (…)], the Kd [7] was 39.5 µM and the EC50 (read off the curve) [8] was 40 µM.
